Source: PMC11882521, “Cofactor engineering for improved production of 2,4-dihydroxybutyric acid via the synthetic homoserine pathway” (Frontiers in Bioengineering and Biotechnology, 2025)

What was measured:
[1] = biological target: T1, Ec.Mdh^5Q D34G (OHB reductase, engineered E. coli malate dehydrogenase) (Escherichia coli, UniProt P61889, I12V/D34G/R81A/M85Q/D86S/G179D); assay: specific activity of purified enzyme at […] OHB and […] NADH; format: biochemical
T1 construct: N-terminally 6x-His-tagged
T1 sequence (P61889 whole entry I12V/D34G/R81A/M85Q/D86S/G179D): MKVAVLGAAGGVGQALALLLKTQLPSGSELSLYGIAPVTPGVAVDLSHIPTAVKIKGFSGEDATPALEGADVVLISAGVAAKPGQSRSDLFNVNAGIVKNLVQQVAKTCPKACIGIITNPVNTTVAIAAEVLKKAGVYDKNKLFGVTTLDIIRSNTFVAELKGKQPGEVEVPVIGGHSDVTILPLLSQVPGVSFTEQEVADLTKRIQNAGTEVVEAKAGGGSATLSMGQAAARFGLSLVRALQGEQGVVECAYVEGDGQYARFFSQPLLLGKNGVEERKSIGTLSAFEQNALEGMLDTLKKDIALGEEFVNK

[2] = biological target: T1, Ec.Mdh^5Q D34G (OHB reductase, engineered E. coli malate dehydrogenase); assay: specific activity of purified enzyme at […] OHB and […] NADPH; format: biochemical
[3] = tested on: T2, NC(=O)C1=CN([C@@H]2O[C@H](COP(=O)(O)OP(=O)(O)OC[C@H]3O[C@@H](n4cnc5c(N)ncnc54)[C@H](OP(=O)(O)O)[C@@H]3O)[C@@H](O)[C@H]2O)C=CC1; assay: purified protein; format: biochemical, Escherichia coli; conditions: varied: cofactor
T2 construct: N-terminally 6x-His-tagged

[4] = tested on: T3, O=C(O)C(=O)CCO; assay: purified protein; format: biochemical, Escherichia coli
T3 construct: N-terminally 6x-His-tagged

[5] = tested on: T4, NC(=O)C1=CN([C@@H]2O[C@H](COP(=O)(O)OP(=O)(O)OC[C@H]3O[C@@H](n4cnc5c(N)ncnc54)[C@H](O)[C@@H]3O)[C@@H](O)[C@H]2O)C=CC1; assay: purified protein; format: biochemical, Escherichia coli; conditions: co-enzyme binding site, varied: cofactor
T4 construct: N-terminally 6x-His-tagged

[6] = co-enzyme binding site, Asp34 disfavours the […]'-phosphate group
[7] = Asp34 confers cofactor specificity
[8] = […]'-phosphate group near positions […] and […] (selectivity control loop, cofactor binding motif of the Rossmann fold)
[9] = NADPH uncompetitive substrate inhibition (Ki =[…])

NC(=O)C1=CN([C@@H]2O[C@H](COP(=O)(O)OP(=O)(O)OC[C@H]3O[C@@H](n4cnc5c(N)ncnc54)[C@H](O)[C@@H]3O)[C@@H](O)[C@H]2O)C=CC1 [NADH]
specific activity of purified enzyme at 2 mM OHB and 0.25 mM NADH [1]: 23 ± 2 U mg^−1 (specific activity)

NC(=O)C1=CN([C@@H]2O[C@H](COP(=O)(O)OP(=O)(O)OC[C@H]3O[C@@H](n4cnc5c(N)ncnc54)[C@H](OP(=O)(O)O)[C@@H]3O)[C@@H](O)[C@H]2O)C=CC1 [NADPH]
specific activity of purified enzyme at 2 mM OHB and 0.25 mM NADPH [2]: 35 ± 3 U mg^−1 (specific activity)

Ec.Mdh^5Q (OHB reductase, engineered E. coli malate dehydrogenase) (Escherichia coli K-12; D86S/G179D/I12V/M85Q/R81A)
Km [3, 6]: 320 µM | Vmax [3, 6]: 5.56 µmol/min/mg | kcat [3, 6]: 2.99 ± 0.35 s⁻¹ | kcat/Km [3, 6]: 9500 ± 50 M⁻¹ s⁻¹ | Km ([4]; NADH): 1840 µM | Vmax ([4]; NADH): 138 µmol/min/mg | kcat ([4]; NADH): 74.9 ± 5.63 s⁻¹ | kcat/Km ([4]; NADH): 44900 ± 15200 M⁻¹ s⁻¹ | Km [5, 7]: 40 µM | Vmax [5, 7]: 67.7 µmol/min/mg | kcat [5, 7]: 36.5 ± 1.68 s⁻¹ | kcat/Km [5, 7]: 1.03e+06 ± 67500 M⁻¹ s⁻¹

Ec.Mdh^7Q (OHB reductase, engineered E. coli malate dehydrogenase) (Escherichia coli K-12; D34G/D86S/G179D/I12V/I35R/M85Q/R81A)
Km [3, 8]: 100 µM | Vmax [3, 8]: 119 µmol/min/mg | kcat [3, 8]: 64 ± 9.97 s⁻¹ | kcat/Km [3, 8]: 645000 ± 76200 M⁻¹ s⁻¹ | Km [4, 9]: 1080 µM | Vmax [4, 9]: 155 µmol/min/mg | kcat [4, 9]: 83.4 ± 3.4 s⁻¹ | kcat/Km [4, 9]: 80300 ± 17300 M⁻¹ s⁻¹ | Km [5]: 270 µM | Vmax [5]: 20 µmol/min/mg | kcat [5]: 10.8 ± 1.07 s⁻¹ | kcat/Km [5]: 40400 ± 1710 M⁻¹ s⁻¹
